In paper PMC10752894, “Structural basis for DNA proofreading” (Nature Communications, 2023):

Assays:
[1] = target: Polγ holoenzyme, cryo-EM Complex ONE (Homo sapiens, UniProt P54098;Q9UHN1 26-1239;26-485); assay: cryo-EM; Complex ONE class 1; EMSA: 40 mM Tris-HCl pH 7.9, 60 mM NaCl, 10 mM MgCl2, 5% glycerol, 20 mM 2-mercaptoethanol, 0.1 mg/ml BSA, 150 nM Cy3 scaffold, 10 min room temperature; 0.5% agarose, 0.5X TBE, 4 °C; details: protein: recombinant; tags: N-terminal His (both subunits); copies: 1;2; primer-template, 6 nt 5' template overhang, 3'-terminal A mismatched with G
Sequence of Polγ holoenzyme, cryo-EM Complex ONE (P54098 26-1239, one chain of several): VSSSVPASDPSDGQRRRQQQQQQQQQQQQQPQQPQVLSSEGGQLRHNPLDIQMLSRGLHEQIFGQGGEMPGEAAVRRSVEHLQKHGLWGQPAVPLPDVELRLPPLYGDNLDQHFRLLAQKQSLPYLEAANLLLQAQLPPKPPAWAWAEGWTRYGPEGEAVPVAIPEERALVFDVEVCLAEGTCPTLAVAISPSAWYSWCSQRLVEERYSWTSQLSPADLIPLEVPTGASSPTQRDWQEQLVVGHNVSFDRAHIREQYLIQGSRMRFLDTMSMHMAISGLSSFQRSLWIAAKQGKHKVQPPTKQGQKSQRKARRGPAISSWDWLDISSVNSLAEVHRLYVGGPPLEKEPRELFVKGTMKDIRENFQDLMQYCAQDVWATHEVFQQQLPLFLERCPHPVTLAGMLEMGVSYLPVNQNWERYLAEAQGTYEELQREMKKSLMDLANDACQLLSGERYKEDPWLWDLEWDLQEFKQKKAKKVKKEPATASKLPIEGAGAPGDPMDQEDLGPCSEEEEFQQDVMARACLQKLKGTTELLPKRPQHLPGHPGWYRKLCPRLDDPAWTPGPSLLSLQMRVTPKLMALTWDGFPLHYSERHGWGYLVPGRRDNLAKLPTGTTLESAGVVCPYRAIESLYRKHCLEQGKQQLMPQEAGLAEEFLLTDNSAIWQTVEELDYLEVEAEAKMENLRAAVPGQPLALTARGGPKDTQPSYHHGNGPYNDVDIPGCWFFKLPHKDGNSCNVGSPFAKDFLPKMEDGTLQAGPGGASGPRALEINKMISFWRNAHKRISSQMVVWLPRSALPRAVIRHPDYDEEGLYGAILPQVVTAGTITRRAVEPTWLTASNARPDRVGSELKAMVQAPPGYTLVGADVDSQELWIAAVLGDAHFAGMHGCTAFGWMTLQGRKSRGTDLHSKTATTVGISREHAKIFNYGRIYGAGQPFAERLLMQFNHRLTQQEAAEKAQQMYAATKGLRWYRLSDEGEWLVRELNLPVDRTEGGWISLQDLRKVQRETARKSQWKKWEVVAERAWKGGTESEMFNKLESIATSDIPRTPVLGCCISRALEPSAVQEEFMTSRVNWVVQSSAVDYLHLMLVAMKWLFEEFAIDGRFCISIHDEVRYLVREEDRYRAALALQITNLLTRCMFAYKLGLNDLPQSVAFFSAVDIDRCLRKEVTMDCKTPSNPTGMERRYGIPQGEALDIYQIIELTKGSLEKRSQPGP

[2] = target: the molecule itself; assay: cryo-EM structure; Complex ONE: 2 μM WT Polγ holoenzyme with the DNA20*A/DNA20_TS scaffold (phosphorothioate mismatched primer), 10 mM Tris-HCl pH 7.9, 100 mM NaCl, 10 mM DTT, 2 mM MgCl2. Complex THREE: the same with the hydrolyzable DNA20A primer. Gives Structures I, II, VII, VIII, IX

| Binder | binding result [1] | binding result [2] |
| --- | --- | --- |
| DNA20sA/DNA20TS (Complex ONE) (dsDNA, phosphorothioate before the 3'-terminal A of the primer (racemic)) DNA 1: GAAGACAGTCTGCGGCGCGA DNA 2: ACACACGCGCGCCGCAGACTGTCTTC | binds |  |
| human mitochondrial DNA polymerase Gamma accessory subunit Polγ_B (residues 26–485) (natural protein, UniProt Q9UHN1 26-485, looked up, human DNA polymerase gamma accessory subunit Polγ_B, residues 26-485; It is a homodimer in the holoenzyme, with a proximal copy Polγ_B1 and a distal copy Polγ_B2; also called Polγ_B homodimer; Polγ_B1; source: E. coli BL21-CodonPlus (DE3)-RIPL, purified (Ni-NTA, HiTrap heparin)) DAGQPELLTERSSPKGGHVKSHAELEGNGEHPEAPGSGEGSEALLEICQRRHFLSGSKQQLSRDSLLSGCHPGFGPLGVELRKNLAAEWWTSVVVFREQVFPVDALHHKPGPLLPGDSAFRLVSAETLREILQDKELSKEQLVAFLENVLKTSGKLRENLLHGALEHYVNCLDLVNKRLPYGLAQIGVCFHPVFDTKQIRNGVKSIGEKTEASLVWFTPPRTSNQWLDFWLRHRLQWWRKFAMSPSNFSSSDCQDEEGRKGNKLYYNFPWGKELIETLWNLGDHELLHMYPGNVSKLHGRDGRKNVVPCVLSVNGDLDRGMLAYLYDSFQLTENSFTRKKNLHRKVLKLHPCLAPIKVALDVGRGPTLELRQVCQGLFNELLENGISVWPGYLETMQSSLEQLYSKYDEMSILFTVLVTETTLENGLIHLRSRDTTMKEMMHISKLKDFLIKYISSAKNV |  | binds |
